From patent US9738911B2, “Methods of producing 7-carbon chemicals via pyruvate and succinate semialdehyde aldol condensation” (INVISTA North America S.a r.l., priority 2012, dated 2017)

What was measured:
Type in all cases: biochemical
[1] = ω-transaminase activity assay, reverse direction, 7-aminoheptanoate to pimelate semialdehyde; conditions: 10 mM 7-aminoheptanoate, 10 mM pyruvate, cell free extract, 25° C., 4 h; against empty vector control (FIG. 15)
Experimental: (§1) A sequence encoding an N-terminal His-tag was added to the genes from Chromobacterium violaceum, Pseudomonas syringae, Rhodobacter sphaeroides, and Vibrio Fluvialis encoding the ω-transaminases of SEQ ID NOs: 8, 10, 11 and 13, respectively (see FIGS. 7F-7G) such that N-terminal HIS tagged ω-transaminases could be produced. Each of the resulting modified genes was cloned into a pET21a expression vector under control of the T7 promoter and each expression vector was transformed into a BL21[DE3] E. coli host. The resulting recombinant E. coli strains were cultivated at 37° C. in a 250 mL shake flask culture containing 50 mL LB media and antibiotic selection pressure, with shaking at 230 rpm. Each culture was induced overnight at 16° C. using 1 mM IPTG.
(§2) The pellet from each induced shake flask culture was harvested via centrifugation. Each pellet was resuspended and lysed via sonication. The cell debris was separated from the supernatant via centrifugation and the cell free extract was used immediately in enzyme activity assays.
Enzyme activity assays in the reverse direction (i.e., 7-aminoheptanoate to pimelate semialdehyde) were performed in a buffer composed of a final concentration of 50 mM HEPES buffer (pH=7.5), 10 mM 7-aminoheptanoate, 10 mM pyruvate and 100 μM pyridoxyl 5′ phosphate. Each enzyme activity assay reaction was initiated by adding cell free extract of the ω-transaminase gene product or the empty vector control to the assay buffer containing the 7-aminoheptanoate and incubated at 25° C. for 4 h, with shaking at 250 rpm. The formation of L-alanine from pyruvate was quantified via RP-HPLC.

[2] = ω-transaminase activity assay, forward direction, pimelate semialdehyde to 7-aminoheptanoate; conditions: for substrate acceptance, formation of pyruvate from L-alanine by RP-HPLC: 10 mM pimelate semialdehyde, 10 mM L-alanine, cell free extract, 25° C., 4 h, against empty vector control (FIG. 16); for reversibility of ω-transaminase activity: pimelate semialdehyde accepted, 7-aminoheptanoate synthesized: conclusion from the forward and reverse assays of Example 2
Experimental: as §1, §2
Enzyme activity in the forward direction (i.e., pimelate semialdehyde to 7-aminoheptanoate) was confirmed for the transaminases of SEQ ID NO 10, SEQ ID NO 11 and SEQ ID NO 13. Enzyme activity assays were performed in a buffer composed of a final concentration of 50 mM HEPES buffer (pH=7.5), 10 mM pimelate semialdehyde, 10 mM L-alanine and 100 μM pyridoxyl 5′ phosphate. Each enzyme activity assay reaction was initiated by adding a cell free extract of the ω-transaminase gene product or the empty vector control to the assay buffer containing the pimelate semialdehyde and incubated at 25° C. for 4 h, with shaking at 250 rpm. The formation of pyruvate was quantified via RP-HPLC.

[3] = ω-transaminase activity assay, 7-aminoheptanol to 7-oxoheptanol; conditions: for substrate acceptance, formation of L-alanine by RP-HPLC: 10 mM 7-aminoheptanol, 10 mM pyruvate, cell free extract, 25° C., 4 h, against empty vector control (FIG. 19); for acceptance of 7-oxoheptanol, forming 7-aminoheptanol, concluded from reversibility: concluded from the reverse direction assay and Example 2
Experimental: A nucleotide sequence encoding an N-terminal His-tag was added to the Chromobacterium violaceum, Pseudomonas syringae and Rhodobacter sphaeroides genes encoding the ω-transaminases of SEQ ID NOs: 8, 10 and 11, respectively (see FIGS. 7F and 7G) such that N-terminal HIS tagged ω-transaminases could be produced. The modified genes were cloned into a pET21a expression vector under the T7 promoter.
Each expression vector was transformed into a BL21[DE3] E. coli host. Each resulting recombinant E. coli strain were cultivated at 37° C. in a 250 mL shake flask culture containing 50 mL LB media and antibiotic selection pressure, with shaking at 230 rpm. Each culture was induced overnight at 16° C. using 1 mM IPTG.
as §2
Enzyme activity assays in the reverse direction (i.e., 7-aminoheptanol to 7-oxoheptanol) were performed in a buffer composed of a final concentration of 50 mM HEPES buffer (pH=7.5), 10 mM 7-aminoheptanol, 10 mM pyruvate, and 100 μM pyridoxyl 5′ phosphate. Each enzyme activity assay reaction was initiated by adding cell free extract of the ω-transaminase gene product or the empty vector control to the assay buffer containing the 7-aminoheptanol and then incubated at 25° C. for 4 h, with shaking at 250 rpm. The formation of L-alanine was quantified via RP-HPLC.

SEQ ID NO 11: Rhodobacter sphaeroides ω-transaminase (Genbank Accession No. ABA81135.1)
substrate acceptance, formation of L-alanine from pyruvate by RP-HPLC [1]: accepted 7-aminoheptanote as substrate
substrate acceptance, formation of pyruvate from L-alanine by RP-HPLC [2]: accepted pimelate semialdehyde as substrate
reversibility of ω-transaminase activity: pimelate semialdehyde accepted, 7-aminoheptanoate synthesized [2]: accepted pimelate semialdehyde as substrate and synthesized 7-aminoheptanoate as a reaction product
substrate acceptance, formation of L-alanine by RP-HPLC [3]: accepted 7-aminoheptanol as substrate
acceptance of 7-oxoheptanol, forming 7-aminoheptanol, concluded from reversibility [3]: accept 7-oxoheptanol as substrate and form 7-aminoheptanol

B1: SEQ ID NO 8: Chromobacterium violaceum ω-transaminase (Genbank Accession No. AAQ59697.1) (protein, listed as Chromobacterium violaceum)
chain: MQKQRTTSQWRELDAAHHLHPFTDTASLNQAGARVMTRGEGVYLWDSEGNKIIDGMAGLWCVNVGYGRKDFAEAARRQMEELPFYNTFFKTTHPAVVELSSLLAEVTPAGFDRVFYTNSGSESVDTMIRMVRRYWDVQGKPEKKTLIGRWNGYHGSTIGGASLGGMKYMHEQGDLPIPGMAHIEQPWWYKHGKDMTPDEFGVVAARWLEEKILEIGADKVAAFVGEPIQGAGGVIVPPATYWPEIERICRKYDVLLVADEVICGFGRTGEWFGHQHFGFQPDLFTAAKGLSSGYLPIGAVFVGKRVAEGLIAGGDFNHGFTYSGHPVCAAVAHANVAALRDEGIVQRVKDDIGPYMQKRWRETFSRFEHVDDVRGVGMVQAFTLVKNKAKRELFPDFGEIGTLCRDIFFRNNLIMRACGDHIVSAPPLVMTRAEVDEMLAVAERCLEEFEQTLKARGLA
substrate acceptance, formation of L-alanine from pyruvate by RP-HPLC [1]: accepted 7-aminoheptanote as substrate
reversibility of ω-transaminase activity: pimelate semialdehyde accepted, 7-aminoheptanoate synthesized [2]: accepted pimelate semialdehyde as substrate and synthesized 7-aminoheptanoate as a reaction product
substrate acceptance, formation of L-alanine by RP-HPLC [3]: accepted 7-aminoheptanol as substrate
acceptance of 7-oxoheptanol, forming 7-aminoheptanol, concluded from reversibility [3]: accept 7-oxoheptanol as substrate and form 7-aminoheptanol

B2: SEQ ID NO 13: Vibrio fluvialis ω-transaminase (Genbank Accession No. AEA39183.1) (protein, listed as Vibrio fluvialis)
chain: MNKPQSWEARAETYSLYGFTDMPSLHQRGTVVVTHGEGPYIVDVNGRRYLDANSGLWNMVAGFDHKGLIDAAKAQYERFPGYHAFFGRMSDQTVMLSEKLVEVSPFDSGRVFYTNSGSEANDTMVKMLWFLHAAEGKPQKRKILTRWNAYHGVTAVSASMTGKPYNSVFGLPLPGFVHLTCPHYWRYGEEGETEEQFVARLARELEETIQREGADTIAGFFAEPVMGAGGVIPPAKGYFQAILPILRKYDIPVISDEVICGFGRTGNTWGCVTYDFTPDAIISSKNLTAGFFPMGAVILGPELSKRLETAIEAIEEFPHGFTASGHPVGCAIALKAIDVVMNEGLAENVRRLAPRFEERLKHIAERPNIGEYRGIGFMWALEAVKDKASKTPFDGNLSVSERIANTCTDLGLICRPLGQSVVLCPPFILTEAQMDEMFDKLEKALDKVFAEVA
substrate acceptance, formation of L-alanine from pyruvate by RP-HPLC [1]: accepted 7-aminoheptanote as substrate
substrate acceptance, formation of pyruvate from L-alanine by RP-HPLC [2]: accepted pimelate semialdehyde as substrate
reversibility of ω-transaminase activity: pimelate semialdehyde accepted, 7-aminoheptanoate synthesized [2]: accepted pimelate semialdehyde as substrate and synthesized 7-aminoheptanoate as a reaction product
